Laboratory results published in PMC11804915, “Single-stranded DNA binding to the transcription factor PafBC triggers the mycobacterial DNA damage response”.
Substitutions are numbered along the chain they refer to.

Assays:
Experiment in all cases: EMSA; up to 16 uM; ssDNA EMSA: 22.5 mM Hepes-KOH pH 7.8, 135 mM NaCl, 20 mM KCl, 5 mM MgCl2, 1 mM DTT, 37 C 15 min, 10 nM DNA, 0-16 uM PafBC; RNAP EMSA: 20 mM Hepes-NaOH pH 8, 100 mM K-acetate, 36 mM NaCl, 10 mM MgCl2, 2 mM DTT, 37 C 30 min
Conditions in all cases: protein: recombinant; tags: C-terminal Strep on PafC; copies: 1;1; label: FAM; single strand
[1] = target: T1, PafBC, PafB R181A/R204A/R208A (Mycobacterium smegmatis, UniProt A4ZHT0;A0QZ41 1-331;1-318, R204A;R208A;PafB:R181A)
T1 sequence 1: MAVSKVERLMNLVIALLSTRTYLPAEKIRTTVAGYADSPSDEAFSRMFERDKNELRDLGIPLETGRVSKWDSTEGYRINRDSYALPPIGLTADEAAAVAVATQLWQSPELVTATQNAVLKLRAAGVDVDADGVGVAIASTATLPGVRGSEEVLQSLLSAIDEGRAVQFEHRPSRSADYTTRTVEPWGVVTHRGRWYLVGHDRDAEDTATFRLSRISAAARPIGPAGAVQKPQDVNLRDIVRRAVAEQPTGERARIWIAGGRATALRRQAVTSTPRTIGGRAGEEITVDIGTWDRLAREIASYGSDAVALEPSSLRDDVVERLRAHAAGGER
T1 sequence 2: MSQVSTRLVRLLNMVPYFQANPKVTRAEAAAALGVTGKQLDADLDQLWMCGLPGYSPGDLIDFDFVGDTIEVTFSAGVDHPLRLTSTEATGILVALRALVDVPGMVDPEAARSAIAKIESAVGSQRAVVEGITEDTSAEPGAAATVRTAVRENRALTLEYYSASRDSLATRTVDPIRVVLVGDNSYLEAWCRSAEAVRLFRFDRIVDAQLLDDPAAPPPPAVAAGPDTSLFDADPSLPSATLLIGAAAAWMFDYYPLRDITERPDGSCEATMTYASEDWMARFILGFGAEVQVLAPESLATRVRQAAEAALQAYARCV

PafBC, PafB WYL variant = target: T2, PafBC, PafB WYL variant (Mycobacterium smegmatis, UniProt A4ZHT0;A0QZ41 1-331;1-318, R214A;PafB:R211A)
T2 sequence 1: T1 sequence 1 with A204R, A208R, R214A
T2 sequence 2: T1 sequence 2

PafBC, PafB R181A = target: T3, PafBC, PafB R181A (Mycobacterium smegmatis, UniProt A4ZHT0;A0QZ41 1-331;1-318, R181A)
T3 sequence 1: T1 sequence 1 with R181A, A204R, A208R
T3 sequence 2: T1 sequence 2

Measured: binding result

TTTTTTTTTTTTTTTTTTTT (ssDNA) [dT20 ssDNA]
no binding: all assays above
